# B1: human monoclonal antibody CRJB (antibody, V domains shown)
# VH: QITLKETGPTLVKPTQTLTLTCTFSGFSLSTSGVGVGWIRQPPGKALEWVTLIYWDDDKRYSPSLENRVTIRKDTSKNQVALTMTNMDPLDTGTYYCAHRQHISSFPWFDSWGQGTLVTVSS
# VL: SYVLTQPPSVSVAPGKTARINCGGNNIEYRSVHWYQQKSGQAPVAVIYDNSDRPSGIPERFSGSKSGNTATLTISRVEAGDEADYYCQVWDISSDVVFGGGTKLTVLG
# Columns and labels:
# Assay in all cases: PEPSCAN ELISA, looped 15-mer, 10 ug/ml
# [1] = target: looped peptide … (rabies virus strain ERA)
# [2] = target: looped peptide … (rabies virus strain ERA); remark: listed apart in the source
# [3] = target: looped peptide … (rabies virus strain ERA); remark: listed apart in the source
# [4] = target: looped peptide … (rabies virus strain ERA); remark: listed apart in the source
# [5] = target: looped peptide … (rabies virus strain ERA); remark: listed apart in the source
# [6] = target: looped peptide … (rabies virus strain ERA); remark: listed apart in the source
# [7] = target: looped peptide … (rabies virus strain ERA); remark: listed apart in the source
# [8] = target: looped peptide … (rabies virus strain ERA); remark: listed apart in the source
# [9] = target: looped peptide … (rabies virus strain ERA); remark: listed apart in the source
# [10] = target: looped peptide … (rabies virus strain ERA); remark: listed apart in the source
# [11] = target: looped peptide … (rabies virus strain ERA); remark: listed apart in the source
# [12] = target: looped peptide … (rabies virus strain ERA); remark: listed apart in the source
# [13] = target: looped peptide … (rabies virus strain ERA); remark: listed apart in the source
# [14] = target: looped peptide … (rabies virus strain ERA); remark: listed apart in the source
# [15] = target: looped peptide … (rabies virus strain ERA); remark: listed apart in the source
# [16] = target: looped peptide … (rabies virus strain ERA); remark: listed apart in the source
# [17] = target: looped peptide … (rabies virus strain ERA); remark: listed apart in the source
# [18] = target: looped peptide … (rabies virus strain ERA); remark: listed apart in the source
# [19] = target: looped peptide … (rabies virus strain ERA); remark: listed apart in the source
# [20] = target: looped peptide … (rabies virus strain ERA); remark: listed apart in the source
# [21] = target: looped peptide … (rabies virus strain ERA); remark: listed apart in the source
# [22] = target: looped peptide … (rabies virus strain ERA); remark: listed apart in the source
# [23] = target: looped peptide … (rabies virus strain ERA); remark: listed apart in the source
# [24] = target: looped peptide … (rabies virus strain ERA); remark: listed apart in the source
# [25] = target: looped peptide … (rabies virus strain ERA); remark: listed apart in the source
# [26] = target: looped peptide … (rabies virus strain ERA); remark: listed apart in the source
# [27] = target: looped peptide … (rabies virus strain ERA); remark: listed apart in the source
# [28] = target: looped peptide … (rabies virus strain ERA); remark: listed apart in the source
# [29] = target: looped peptide … (rabies virus strain ERA); remark: listed apart in the source
# [30] = target: looped peptide … (rabies virus strain ERA); remark: listed apart in the source
# [31] = target: looped peptide … (rabies virus strain ERA); remark: listed apart in the source
# [32] = target: looped peptide … (rabies virus strain ERA); remark: listed apart in the source
# [33] = target: looped peptide … (rabies virus strain ERA); remark: listed apart in the source
# [34] = target: looped peptide … (rabies virus strain ERA); remark: listed apart in the source
# [35] = target: looped peptide … (rabies virus strain ERA); remark: listed apart in the source
# [36] = target: looped peptide … (rabies virus strain ERA); remark: listed apart in the source
# [37] = target: looped peptide … (rabies virus strain ERA); remark: listed apart in the source
# [38] = target: looped peptide … (rabies virus strain ERA); remark: listed apart in the source
# [39] = target: looped peptide … (rabies virus strain ERA); remark: listed apart in the source
# [40] = target: looped peptide … (rabies virus strain ERA); remark: listed apart in the source
# [41] = target: looped peptide … (rabies virus strain ERA); remark: listed apart in the source
# [42] = target: looped peptide … (rabies virus strain ERA); remark: listed apart in the source
# [43] = target: looped peptide … (rabies virus strain ERA); remark: listed apart in the source
# [44] = target: looped peptide … (rabies virus strain ERA); remark: listed apart in the source
# [45] = target: looped peptide … (rabies virus strain ERA); remark: listed apart in the source
# [46] = target: looped peptide … (rabies virus strain ERA); remark: listed apart in the source
# [47] = target: looped peptide … (rabies virus strain ERA); remark: listed apart in the source
# [48] = target: looped peptide … (rabies virus strain ERA); remark: listed apart in the source
# [49] = target: looped peptide … (rabies virus strain ERA); remark: listed apart in the source
# [50] = target: looped peptide … (rabies virus strain ERA); remark: listed apart in the source
# [51] = target: looped peptide … (rabies virus strain ERA); remark: listed apart in the source
# [52] = target: looped peptide … (rabies virus strain ERA); remark: listed apart in the source
# [53] = target: looped peptide … (rabies virus strain ERA); remark: listed apart in the source
# [54] = target: looped peptide … (rabies virus strain ERA); remark: listed apart in the source
# [55] = target: looped peptide … (rabies virus strain ERA); remark: listed apart in the source
# [56] = target: looped peptide … (rabies virus strain ERA); remark: listed apart in the source
# [57] = target: looped peptide … (rabies virus strain ERA); remark: listed apart in the source
# [58] = target: looped peptide … (rabies virus strain ERA); remark: listed apart in the source
# [59] = target: looped peptide … (rabies virus strain ERA); remark: listed apart in the source
# [60] = target: looped peptide … (rabies virus strain ERA); remark: listed apart in the source
# [61] = target: looped peptide … (rabies virus strain ERA); remark: listed apart in the source
# [62] = target: looped peptide … (rabies virus strain ERA); remark: listed apart in the source
# [63] = target: looped peptide … (rabies virus strain ERA); remark: listed apart in the source
# [64] = target: looped peptide … (rabies virus strain ERA); remark: listed apart in the source
# [65] = target: looped peptide … (rabies virus strain ERA); remark: listed apart in the source
# [66] = target: looped peptide … (rabies virus strain ERA); remark: listed apart in the source
# [67] = target: looped peptide … (rabies virus strain ERA); remark: listed apart in the source
# [68] = target: looped peptide … (rabies virus strain ERA); remark: listed apart in the source
binder,measurement,setting,value
B1,OD value,[1],94
same,OD value,[2],5
same,OD value,[3],88
same,OD value,[4],111
same,OD value,[5],90
same,OD value,[6],89
same,OD value,[7],106
same,OD value,[8],82
same,OD value,[9],92
same,OD value,[10],97
same,OD value,[11],106
same,OD value,[12],79
same,OD value,[13],48
same,OD value,[14],58
same,OD value,[15],66
same,OD value,[16],42
same,OD value,[17],85
same,OD value,[18],127
same,OD value,[19],66
same,OD value,[20],74
same,OD value,[21],82
same,OD value,[22],76
same,OD value,[23],65
same,OD value,[24],66
same,OD value,[25],93
same,OD value,[26],23
same,OD value,[27],83
same,OD value,[28],55
same,OD value,[29],76
same,OD value,[30],87
same,OD value,[31],73
same,OD value,[32],83
same,OD value,[33],79
same,OD value,[34],90
same,OD value,[35],60
same,OD value,[36],93
same,OD value,[37],72
same,OD value,[38],75
same,OD value,[39],62
same,OD value,[40],108
same,OD value,[41],112
same,OD value,[42],97
same,OD value,[43],79
same,OD value,[44],33
same,OD value,[45],86
same,OD value,[46],89
same,OD value,[47],77
same,OD value,[48],74
same,OD value,[49],78
same,OD value,[50],90
same,OD value,[51],99
same,OD value,[52],96
same,OD value,[53],44
same,OD value,[54],82
same,OD value,[55],56
same,OD value,[56],78
same,OD value,[57],75
same,OD value,[58],96
same,OD value,[59],90
same,OD value,[60],58
same,OD value,[61],105
same,OD value,[62],106
same,OD value,[63],8
same,OD value,[64],57
same,OD value,[65],71
same,OD value,[66],90
same,OD value,[67],25
same,OD value,[68],103

# Source: US20060263802A1 (CRUCELL HOLLAND B V, published 2006)
